From patent US20110223107A1 (ALETHIA BIOTHERAPEUTICS, published 2011)
Several values for one entry are separate records, joined by “and”; a condition that tells them apart may be missing. Equal entries are not always repeated. Where two headings read alike, the source gives them in different places.

How the values were obtained:
[1] = target: T1, recombinant Fc-KAAG1 fusion protein (full-length KAAG1) (human, UniProt Q9UBP8 1-84, biotinylated with NHS-biotin (sites not given)); test: ELISA
T1 construct: also called recombinant human KAAG1; not shown: human Fc domain encoded by expression plasmid pYD5; vector-encoded residues between the Fc and the BamHI cloning site of pYD5
T1 sequence: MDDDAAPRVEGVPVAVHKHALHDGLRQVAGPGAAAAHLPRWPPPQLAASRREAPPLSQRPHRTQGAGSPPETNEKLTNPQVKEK
Protocol: (§1) The 96-well master plate of monoclonal preparations contained different concentrations of purified anti-KAAG1 Fabs in each well. A second stock master plate was prepared by diluting the Fabs to a final concentration of 10 μg/ml from which all subsequent dilutions were performed for ELISA measurements. To carry out the binding of Fc-KAAG1 to the monoclonal preparations, the Fc-KAAG1 was biotinylated with NHS-biotin (Pierce, Rockford, Ill.) and 10 ng/well was coated in a streptavidin 96-well plate. One nanogram of each Fab monoclonal preparation was added to each well and incubated at room temperature for 30 minutes. Bound antibody was detected with HRP-conjugated mouse anti-kappa light chain antibody in the presence of TMB liquid substrate (Sigma-Aldrich Canada Ltd., Oakville, ON) and readings were conducted at 450 nm in microtiter plate reader.

[2] = target: T1, recombinant Fc-KAAG1 fusion protein …; test: ELISA; remark: listed apart in the source
[3] = target: T2, monomeric recombinant KAAG1 (Homo sapiens (Human), UniProt Q9UBP8 1-84, limits assumed); test: SPR (Biacore): antibody captured on immobilised anti-human Fc, monomeric recombinant KAAG1 injected, global 1:1 fit; average KD; chimeric 3D3 tabulated as 'm3D3' in FIG. 18B
T2 construct: Analyte of the Biacore experiment
T2 sequence: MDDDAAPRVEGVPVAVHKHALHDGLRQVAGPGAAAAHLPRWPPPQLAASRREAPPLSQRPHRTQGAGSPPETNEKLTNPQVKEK
Protocol: (§2) More precise measurements were conducted using Surface Plasmon Resonance (SPR) in a Biacore instrument. Kinetic analysis was used to compare the affinity of the chimeric 3D3 with the h3D3 as well as with hybrid antibodies encompassing different permutations of the light and heavy chains (see FIG. 18B). Briefly, anti-human Fc was immobilized on the Biacore sensor chip and chimeric or h3D3 was captured on the chip. Different concentrations of monomeric recombinant KAAG1 were injected and the data were globally fitted to a simple 1:1 model to determine the kinetic parameters of the interaction.

[4] = target: T3, KAAG1 (Kidney associated antigen 1), endogenous, on cancer cells and in tumour tissue (human, UniProt Q9UBP8 1-84); test: cell-based ELISA on fixed, non-permeabilised OV-90 cells
T3 construct: also called KAAG1 antigen
T3 sequence: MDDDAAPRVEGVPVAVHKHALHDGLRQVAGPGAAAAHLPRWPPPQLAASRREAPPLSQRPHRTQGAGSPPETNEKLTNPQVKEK
Protocol: (§3) KAAG1 is expressed on the surface of ovarian cancer cells. […] Following extensive washing of the cells, bound antibody was detected with HRP-conjugated anti-human IgG as a secondary antibody in a modified cell-based ELISA (see FIG. 16A). […] Additionally, the 3D3 antibody produced the strongest signal implying that the epitope targeted by this antibody was the most accessible in this assay. […] A second approach used was flow cytometry. In this case, a mouse 3D3 anti-KAAG1 antibody was incubated with SKOV-3 ovarian cancer cells at saturating conditions and following extensive washing, the bound 3D3 anti-KAAG1 antibody was detected with anti-mouse IgG conjugated to FITC in a flow cytometer.

[5] = target: T1, recombinant Fc-KAAG1 fusion protein …; test: ELISA on recombinant Fc-KAAG1
Protocol: as §1
Since an antibody harboring effector functions was required, the h3D3 was assembled as a human IgG₁. ELISA-based assays were performed to directly compare the ability of the h3D3 […]. The methods used to perform these tests were as described in Example 3 using recombinant Fc-KAAG1.

[6] = target: T2, monomeric recombinant KAAG1; test: SPR (Biacore), antibody captured by anti-human Fc, 1:1 fit
Protocol: as §2

[7] = target: T2, monomeric recombinant KAAG1; test: SPR (Biacore): antibody captured on immobilised anti-human Fc, monomeric recombinant KAAG1 injected, global 1:1 fit; average KD; chimeric light + chimeric heavy chain, 'CC' in FIG. 18B
Protocol: as §2

[8] = target: T3, KAAG1 (Kidney associated antigen 1), …; test: cell-based ELISA on fixed, non-permeabilised TOV-21G cells
Protocol: as §3

biotinylated Fc domain = target: T4, biotinylated Fc domain (UniProt P01857-1 104-330 = IgG part, limits assumed, biotinylated); test: ELISA, biotinylated Fc domain on streptavidin plate, Fab detected with HRP anti-kappa
T4 construct: domain: Fc domain; Control antigen of the Fab ELISA; also called Fc domain (control)
Protocol: as §1

[9] = target: T1, recombinant Fc-KAAG1 fusion protein …; test: ELISA on Fc-KAAG1
Protocol: as §1
Expression of human IgG1s in 293E cells—The expression vectors prepared above that encoded the light and heavy chain immunoglobulins were expressed in 293E cells using the transient transfection system (Durocher et al., 2002). The methods used for co-transfecting the light and heavy chain expression vectors were described in Example 3. […] The ability of the chimeric anti-KAAG1 monoclonal antibodies to bind to recombinant Fc-KAAG1 was measured in the ELISA and compared with the original mouse Fabs. The method was described in Example 3. […]

[10] = target: T5, Fc-fused truncated mutant of KAAG1 spanning amino acids 1-35 (human); test: ELISA
T5 construct: also called truncated mutant of KAAG1 1-35; first 35 amino acids of KAAG1; not shown: human Fc domain encoded by expression plasmid pYD5; vector-encoded residues between the Fc and the BamHI cloning site of pYD5
T5 chain: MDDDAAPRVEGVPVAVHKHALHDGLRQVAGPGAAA

| Binder | OD450 [1] | OD450 [2] | binding result (biotinylated Fc domain) | OD450 [10] | other results |
| --- | --- | --- | --- | --- | --- |
| Fab of well E10 (Omniclonal AL0003Z1 plate) (Fab, V domains shown) VH: EVQLQQSGPELVKPGASVKISCKASGDTFTDYYMNWVKQSHGKSLEWIGDINPNYGGITYNQKFKGKATLTVDTSSSTAYMELRGLTSEDSAVYYCQAYYRNSDYWGQGTTLTVSS VL: DIVMTQAAPSVPVTPGESVSISCRSSKSLLHSNGNTYLYWFLQRPGQSPQLLIYRMSNLASGVPDRFSGSGSGTAFTLRISRVEAEDVGVYYCMQHLEYPYTFGGGTKLEIK | 0.02 | 0.02 | – | – | – |
| G12 (Fab, V domains shown, also called Fab of well G12) VH: EVQLQQSVAELVRPGASVTVSCKASGYIFTDYEIHWVKQTPAHGLEWIGVIDPETGNTAFNQKFKGKATLTADISSSTAYMELSSLTSEDSAVYYCMGYSDYWGQGTTLTVSS VL: DIVMTQSPKFMSTSVGDRVSITCKASQDVGTAVAWYQQKPGQSPELLIYWTSTRHTGVPDRFSGSGSGTDFTLTISSVQAEDLADYFCQQHYSIPLTFGAGTKLELR | 1.38 | 1.38 | – | – | – |
| C3 (Fab, V domains shown, also called Fab of well C3) VH: EVQLQQSVAEVVRPGASVTLSCKASGYTFTDYEIHWVKQTPVHGLEWIGVIDPETGVTAYNQRFRDKATLTTDKSSSTAYMELSSLTSEDSAVYFCMGYSDYWGQGTTLTVSS VL: not shown | 1.04 | 1.04 | – | – | – |
| 3D3 mouse-human chimeric IgG1 anti-KAAG1 monoclonal antibody (antibody, V domains shown, Mouse variable regions on human kappa and human IgG1 constant regions, expressed in 293E cells; also called chimeric 3D3; 3D3 chimeric IgG1) VH: EVQLQQSVAELVRPGASVTLSCKASGYIFTDYEIHWVKQTPVHGLEWIGVIDPETGNTAFNQKFKGKATLTADISSSTAYMELSSLTSEDSAVYYCMGYSDYWGQGTTLTVSS VL: DIVMTQSPSSLAVSIGQKVTMNCKSSQSLLNSNFQKNFLAWYQQKPGQSPKLLIYFASTRESSIPDRFIGSGSGTDFTLTISSVQAEDLADYFCQQHYSTPLTFGAGTKLELKA | – | – | – | – | Kd [3]: 0.235 nM; EC50 (read off the curve) [4]: ~0.9 µg/mL; EC50 (read off the curve) [5]: ~0.4 µg/mL; Ka [6]: 4.5e+09 M⁻¹ and 2.71e+09 M⁻¹; Kd [6]: 0.368 nM; koff [6]: 0.00065 s⁻¹ and 0.00073 s⁻¹; kon [6]: 2.91e+06 M⁻¹ s⁻¹ and 1.98e+06 M⁻¹ s⁻¹; Kd [7]: 0.271 nM; EC50 (read off the curve) [8]: ~0.6 µg/mL |
| 3D3 mouse anti-KAAG1 Fab (Fab, V domains shown, Recombinant mouse Fab prepared from E. coli, from Omniclonal AL0003Z1; also called 3D3 Fab) VH: EVQLQQSVAELVRPGASVTLSCKASGYIFTDYEIHWVKQTPVHGLEWIGVIDPETGNTAFNQKFKGKATLTADISSSTAYMELSSLTSEDSAVYYCMGYSDYWGQGTTLTVSS VL: DIVMTQSPSSLAVSIGQKVTMNCKSSQSLLNSNFQKNFLAWYQQKPGQSPKLLIYFASTRESSIPDRFIGSGSGTDFTLTISSVQAEDLADYFCQQHYSTPLTFGAGTKLELK | 1.21 | 1.21 | no binding | – | EC50 (read off the curve) [9]: ~0.5 µg/mL |
| G8 (Fab, V domains shown, also called Fab of well G8) VH: QVQLKQSGAELVRPGASVTLSCKASGYTFTDYEVHWVKQTPVHGLEWIGVIDPATGDTAYNQKFKGKATLTADKSSSTAYMEVSSLTSEDSAVYYCMGYSDYWGQGTTLTVSS VL: not shown | 1.72 | 1.72 | – | – | – |
| 3G10 mouse anti-KAAG1 Fab (Fab, V domains shown, Recombinant mouse Fab prepared from E. coli; also called 3G10 Fab; well G10) VH: EIQLQQSGPELVKPGASVKISCKASGYTFTDNYMNWVKQSHGKSLEWIGDINPYYGTTTYNQKFKGKATLTVDKSSRTAYMELRGLTSEDSAVYYCARDDWFDYWGQGTLVTVSA VL: DVLMTQTPRSLSVSLGDQASISCRSSQSLLHSNGNTYLEWYLQKPGQPPKVLIYKVSNRFSGVPDRFSGSGSGTDFTLKISGVEAEDLGVYYCFQGSHVPLTFGAGTKLELK | 2.78 | 2.78 | no binding | – | – |
| A9 (Fab, V domains shown, also called Fab of well A9) VH: QVQVQQPGAELVRPGASVTLSCKASGYIFTDYEVHWVRQRPVHGLEWIGVIDPETGDTAYNQKFKGKATLTADKSSSTAYMELSSLTAEDSAVYYCIGYADYWGQGTTLTVSS VL: DIVMTQSPSSLAMSLGQKVTMSCKSSQSLLNSNNQLNYLAWYQQKPGQSPKLLVYFASTRKSGVPDRFIGSGSGTDFTLTITSVQAEDLADYFCQQHFNTPLTFGAGTKLELK | 1.53 | 1.53 | – | 0.1 | – |
| Fab of well C2 (Omniclonal AL0003Z1 plate) (Fab, V domains shown) VH: DVQLQESGPDLVKPSQSLSLTCTVTGFSITSGYGWHWIRQFPGNKLEWMGYISFNGDSNYNPSLKSRISITRDTSKNQFFLQLNSVTSEDTATYYCASSYDGLFAYWGQGPLVTVSA VL: DIQMTQSPSSMYASLGERVTLTCKASQDIHNYLNWFQQKPGKSPKTLIHRANRLVAGVPSRFSGSGSGQDYSLTISSLEYEDLGIYYCLQYDAFPLTFGAGTKLELK | 0.32 | 0.32 | no binding | 1.97 | – |
| 3C4 mouse anti-KAAG1 Fab (Fab, V domains shown, Recombinant mouse Fab prepared from E. coli; also called 3C4 Fab; well C4) VH: EVQLQESGPDLVKPSQSLSLTCTVTGFSITSGYGWHWIRQFPGNKLEWMGYINYDGHNDYNPSLKSRISITQDTSKNQFFLQLNSVTTEDTATYYCASSYDGLFAYWGQGTLVTVSA VL: DIVMSQSPSSMYASLGERVTITCKASQDIHNFLNWFQQKPGKSPKTLIFRANRLVDGVPSRFSGSGSGQDYSLTISSLEFEDLGIYSCLQYDEIPLTFGAGTKLELR | 0.25 | 0.25 | no binding | 1.93 | – |
| Fab of well D1 (Omniclonal AL0003Z1 plate) (Fab, V domains shown) VH: EVQLQESGPDLVKPSQSLSLTCTVTGFSITSGYGWHWIRQFPGDKLEWMGYISFNGDYNYNPSLKSRISITRDTSKNQFFLQLSSVTTEDTATYYCASSYDGLFAYWGQGTLVTVSA VL: DIKMTQSPSSMYASLGERVTITCKASQDIHTYLNWFQQKPGKSPETLIYRANRLVDGVPSRFSGSGSGQDYSLTISSLEYEDMGIYYCLQYDEFPLTFGAGTKLELK | 0.15 | 0.15 | no binding | 1.21 | – |
| 3C4 mouse-human chimeric IgG1 anti-KAAG1 monoclonal antibody (antibody, V domains shown, Mouse variable regions on human kappa and human IgG1 constant regions, expressed in 293E cells; also called chimeric 3C4) VH: EVQLQESGPDLVKPSQSLSLTCTVTGFSITSGYGWHWIRQFPGNKLEWMGYINYDGHNDYNPSLKSRISITQDTSKNQFFLQLNSVTTEDTATYYCASSYDGLFAYWGQGTLVTVSA VL: DIVMSQSPSSMYASLGERVTITCKASQDIHNFLNWFQQKPGKSPKTLIFRANRLVDGVPSRFSGSGSGQDYSLTISSLEFEDLGIYSCLQYDEIPLTFGAGTKLELRA | – | – | – | – | EC50 (read off the curve) [4]: ~0.6 µg/mL |
